Patent US20220143148A1, “COMPOSITIONS AND METHODS FOR MODULATING CGRP SIGNALING TO REGULATE INTESTINAL INNATE LYMPHOID CELLS” (The Broad Institute, Inc., priority 2019, published 2022)

Tested on: small intestinal immune cells
Assay: Droplet-based scRNA-seq of small intestinal immune cells (LP and PP), OVA vs PBS, clustering and differential expression
Type: in vivo, mouse
Conditions: PP
Text: To comprehensively characterize small intestinal immune cells, Applicants generated scRNA-Seq profiles for 58,067 immune cells collected from lamina propria (LP) and Peyer's patch (PP) regions at steady state and after induction of a type 2 inflammatory reaction to ovalbumin (OVA) (Brandt et al., 2003) (FIGS. 1A and 8A). To ensure sufficient representation of rare cells, Applicants combined a normalization strategy—removing by flow sorting either a portion of IgD+ naïve B cells, which are the most abundant cell type in PPs, or all CD19+ and CD3+ T cells (FIG. 8B, Methods)—with profiling of a sufficiently large number of cells number (P>0.99 to recover at least 15 cells from each cluster, Methods) by massively parallel scRNA-seq (Haber et al., 2017) (Methods). Applicants obtained 36,797 and 21,270 high quality cells passing initial filtering (Methods) from PP and LP regions, respectively.
Overall, Applicants annotated 27 cell subsets across the two compartments, spanning T cells, B cells, ILCs, dendritic cells (DCs), myeloid cells and stromal cells, in frequencies ranging from 0.07% to 14%. Briefly, Applicants first partitioned the cells from the PP regions by unsupervised clustering (Methods) into 46 clusters, retained the 97% of cells that were robustly assigned cell identities in each cluster (Methods), assigned the cells from the LP regions to the 46 clusters using a classifier (Methods), and visualized the data with scvis (Ding et al., 2018), a deep generative model-based method (FIGS. 1B and 8C, Methods). Next, Applicants identified genes that were differentially expressed between the cells in each cluster and the remaining cells (Table 1, Methods), as well as between pairs of clusters (Table 2), to elucidate identities of similar cell types/states. Applicants excluded from downstream analysis clusters mostly consisting of contaminants from epithelium, likely doublets, or cells with a small number of Unique Molecular Identifiers (UMIs) (FIGS. 1C and 8D), or lacking distinct markers (Methods). Altogether, Applicants retained 27 clusters spanning 85% of the cells and each associated with distinct marker genes (FIG. 8E, Methods).
To induce allergic reaction to OVA, 6 to 7 weeks old mice were sensitized twice, two weeks apart, with 50 μg of OVA plus 1 mg of aluminum potassium sulfate adjuvant via intraperitoneal injection. Two weeks later, mice were orally administered with 50 mg of OVA on every other day for a total of five times. 1 μg of α-CGRP peptide was administered simultaneously when indicated. Mice were deprived of food for 3-4 hours in cages with wood chip bedding for limiting antigen degradation in the stomach before each intragastric challenge.
Isolation of cells from Peyer's patches (PPs). Peyer's patches (PPs) were carefully dissected from the small intestine under a stereo microscope using a fine scissor, pierced once with a fine forcep. Tissues were digested in freshly made digestion buffer (RPMI-1640 containing 100 μg/ml Liberase™ and 50 μg/ml DNase I at 37° C. on a roto-mixer. After 15 min, tissues were very gently mixed using a 1 ml pipette. The supernatant was collected and added to ice-cold MACS buffer (pH 7.4; PBS plus 2% FCS and 2 mM EDTA). Pre-warmed (37° C.) fresh digestion buffer was added to the remaining tissues. After rotation at 37° C. for 15 min, the mixture was vigorously mixed using a 1 ml pipette for 1 min. Supernatants from the two steps were combined and passed through 70 μm filters and stained for FACS (below).
Isolation of cells from the lamina propria (LP). The small intestines were opened longitudinally and washed in ice-cold PBS. For scRNA-seq, roughly 0.5 cm of fragments from each of the distal, middle and proximal regions without visible PPs were collected. Epithelial cells were dissociated by tissue rotation in pre-warmed (37° C.) PBS containing 10 mM EDTA at 37° C. for 15 min, followed by additional incubation on ice for 15 min. Tissues were then shaken vigorously. […]

B1: OVA (protein, UniProt P01012 2-386, looked up)
Ovalbumin: GSIGAASMEFCFDVFKELKVHHANENIFYCPIAIMSALAMVYLGAKDSTRTQINKVVRFDKLPGFGDSIEAQCGTSVNVHSSLRDILNQITKPNDVYSFSLASRLYAEERYPILPEYLQCVKELYRGGLEPINFQTAADQARELINSWVESQTNGIIRNVLQPSSVDSQTAMVLVNAIVFKGLWEKAFKDEDTQAMPFRVTEQESKPVQMMYQIGLFRVASMASEKMKILELPFASGTMSMLVLLPDEVSGLEQLESIINFEKLTEWTSSNVMEERKIKVYLPRMKMEEKYNLTSVLMAMGITDVFSSSANLSGISSAESLKISQAVHAAHAEINEAGREVVGSAEAGVDAASVSEEFRADHPFLFCIKHIATNAVLFFGRCVSP
Snrnp70 LN (average fold change) (cluster ID 6, OVA vs PBS): 0.220 | Tmem50a LN (average fold change) (cluster ID 6, OVA vs PBS): 0.153 | Tmem59 LN (average fold change) (cluster ID 6, OVA vs PBS): 0.179 | Tmem86a LN (average fold change) (cluster ID 6, OVA vs PBS): 0.323 | Tsix LN (average fold change) (cluster ID 6, OVA vs PBS): −0.418 | Txndc5 LN (average fold change) (cluster ID 6, OVA vs PBS): 0.226 | Ddit4 percentage of expressing cells in OVA-treated group (cluster ID 7): 0.359 | Dusp2 percentage of expressing cells in OVA-treated group (cluster ID 7): 0.465 | Fkbp5 percentage of expressing cells in OVA-treated group (cluster ID 7): 0.167 | Gabarapl2 percentage of expressing cells in OVA-treated group (cluster ID 7): 0.643 | Hsp90ab1 percentage of expressing cells in OVA-treated group (cluster ID 7): 0.834 | Il7r percentage of expressing cells in OVA-treated group (cluster ID 7): 0.191 | Lmo4 percentage of expressing cells in OVA-treated group (cluster ID 7): 0.204 | Matk percentage of expressing cells in OVA-treated group (cluster ID 7): 0.284 | Ptpn22 percentage of expressing cells in OVA-treated group (cluster ID 7): 0.53 | Svbp percentage of expressing cells in OVA-treated group (cluster ID 7): 0.246 | Tsc22d3 percentage of expressing cells in OVA-treated group (cluster ID 7): 0.565 | Txnip percentage of expressing cells in OVA-treated group (cluster ID 7): 0.415 | Zfp36l2 percentage of expressing cells in OVA-treated group (cluster ID 7): 0.757 | Ddit4 LN (average fold change) (cluster ID 7, OVA vs PBS): 0.463 | Dusp2 LN (average fold change) (cluster ID 7, OVA vs PBS): 0.542 | Fkbp5 LN (average fold change) (cluster ID 7, OVA vs PBS): 0.540 | Gabarapl2 LN (average fold change) (cluster ID 7, OVA vs PBS): 0.253 | Hsp90ab1 LN (average fold change) (cluster ID 7, OVA vs PBS): −0.450 | Il7r LN (average fold change) (cluster ID 7, OVA vs PBS): 0.526 | Lmo4 LN (average fold change) (cluster ID 7, OVA vs PBS): 0.711 | Matk LN (average fold change) (cluster ID 7, OVA vs PBS): 0.513 | Ptpn22 LN (average fold change) (cluster ID 7, OVA vs PBS): 0.340 | Svbp LN (average fold change) (cluster ID 7, OVA vs PBS): 0.261 | Tsc22d3 LN (average fold change) (cluster ID 7, OVA vs PBS): 1.003 | Txnip LN (average fold change) (cluster ID 7, OVA vs PBS): 0.551 | Zfp36l2 LN (average fold change) (cluster ID 7, OVA vs PBS): 1.239 | AW112010 percentage of expressing cells in OVA-treated group (cluster ID 8): 0.995 | AY036118 percentage of expressing cells in OVA-treated group (cluster ID 8): 0.431 | Actr3 percentage of expressing cells in OVA-treated group (cluster ID 8): 0.771 | Alyref percentage of expressing cells in OVA-treated group (cluster ID 8): 0.137 | Amd1 percentage of expressing cells in OVA-treated group (cluster ID 8): 0.265 | Arf4 percentage of expressing cells in OVA-treated group (cluster ID 8): 0.478 | Arfrp1 percentage of expressing cells in OVA-treated group (cluster ID 8): 0.21 | Arl6ip1 percentage of expressing cells in OVA-treated group (cluster ID 8): 0.61 | Arl6ip5 percentage of expressing cells in OVA-treated group (cluster ID 8): 0.618 | Arpc5l percentage of expressing cells in OVA-treated group (cluster ID 8): 0.381 | Arrb2 percentage of expressing cells in OVA-treated group (cluster ID 8): 0.32 | Ash1l percentage of expressing cells in OVA-treated group (cluster ID 8): 0.235 | B2m percentage of expressing cells in OVA-treated group (cluster ID 8): 0.999 | Bcl2a1b percentage of expressing cells in OVA-treated group (cluster ID 8): 0.151 | Bcl2l11 percentage of expressing cells in OVA-treated group (cluster ID 8): 0.383 | Bcl2 percentage of expressing cells in OVA-treated group (cluster ID 8): 0.839 | Bhlhe40 percentage of expressing cells in OVA-treated group (cluster ID 8): 0.571 | Cap1 percentage of expressing cells in OVA-treated group (cluster ID 8): 0.695 | Ccr2 percentage of expressing cells in OVA-treated group (cluster ID 8): 0.536 | Cd47 percentage of expressing cells in OVA-treated group (cluster ID 8): 0.833 | Cd69 percentage of expressing cells in OVA-treated group (cluster ID 8): 0.306 | Cd74 percentage of expressing cells in OVA-treated group (cluster ID 8): 0.448 | Cdk2ap1 percentage of expressing cells in OVA-treated group (cluster ID 8): 0.132 | Cdkn1a percentage of expressing cells in OVA-treated group (cluster ID 8): 0.084 | Cdv3 percentage of expressing cells in OVA-treated group (cluster ID 8): 0.255 | Cks2 percentage of expressing cells in OVA-treated group (cluster ID 8): 0.108 | Clec2d percentage of expressing cells in OVA-treated group (cluster ID 8): 0.289 | Coq10b percentage of expressing cells in OVA-treated group (cluster ID 8): 0.305 | Crem percentage of expressing cells in OVA-treated group (cluster ID 8): 0.371 | Csrp1 percentage of expressing cells in OVA-treated group (cluster ID 8): 0.129 | Ctla2a percentage of expressing cells in OVA-treated group (cluster ID 8): 0.74 | Cxcr4 percentage of expressing cells in OVA-treated group (cluster ID 8): 0.577 | Ddx21 percentage of expressing cells in OVA-treated group (cluster ID 8): 0.248 | Defa24 percentage of expressing cells in OVA-treated group (cluster ID 8): 0.044 | Dgat1 percentage of expressing cells in OVA-treated group (cluster ID 8): 0.175 | Dusp1 percentage of expressing cells in OVA-treated group (cluster ID 8): 0.614 | Eef2 percentage of expressing cells in OVA-treated group (cluster ID 8): 0.957 | Egr1 percentage of expressing cells in OVA-treated group (cluster ID 8): 0.156 | Eif4a2 percentage of expressing cells in OVA-treated group (cluster ID 8): 0.622 | Emb percentage of expressing cells in OVA-treated group (cluster ID 8): 0.506 | Fam105a percentage of expressing cells in OVA-treated group (cluster ID 8): 0.376 | Fasl percentage of expressing cells in OVA-treated group (cluster ID 8): 0.598 | Fcer1g percentage of expressing cells in OVA-treated group (cluster ID 8): 0.927
